Consider 133 substances from the supplement of paper PMC12042874.

± gives the uncertainty stated by the source.

The nature of this data set: amyloid nucleation score (Sup35N fusion, yeast selection) (log enrichment); library NNK3; higher = more nucleation; inactive = no reads after selection. Put shortly: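 Psi-negative yeast expressed Sup35N fused to peptides of 20 random codons. They were induced 24 hours with 100 μM copper sulfate, grown 7 days at 30°C without adenine and uracil, and their plasmid inserts from input and output were Illumina-sequenced. The nucleation score is the DiMSum log enrichment of output over input reads, centred on the mode score of non-aggregating sequences. Sequences with under 100 input reads were excluded.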

As for SVILNLMRRWPRKHEVKDAC, the amyloid nucleation score entry is “inactive”. To LTSPREMAWCPHDTAICGTT belongs “inactive”; to NLNYWAFDYADKLIEHSCVR, “inactive”; to TLLYTI, “inactive”. On to YILRFSWFIYLIRQWSNSGP, for which the amyloid nucleation score result is “inactive”. Consider VLGMNEPCSFW, for which the amyloid nucleation score result was “inactive”. SAEVF: the amyloid nucleation score result was “inactive”.

For PRNMVFYVFCNVSLTHAMYS, the amyloid nucleation score was found to be 0.845 ± 0.12.

As for VTNRIGLV, the amyloid nucleation score entry was “inactive”. On to NNCSQVHKTRD, for which the amyloid nucleation score result is “inactive”.

The substance KIDLVGTLVMTIFNAQMQYE returned an amyloid nucleation score of 2.06 ± 0.083. Substance WGMLRTTT showed an amyloid nucleation score of -0.567 ± 1.5. Take MASFSRHVCMYGTLNLSGNA: the amyloid nucleation score result is “inactive”. On to NLKSWFFCIVHCIRLHASVN, for which the amyloid nucleation score result was “inactive”. For the substance YDSVNLSLVLHSKRHYAYCA, the amyloid nucleation score result was “inactive”. In the case of ICFGDKVRIKFFVPSIFSWY, the amyloid nucleation score entry was “inactive”.

The substance NVYYSPFCWCMPDMFFDSIC showed an amyloid nucleation score of 2.88 ± 0.08. To MSFTMMCMSFCSSILRYNLS belongs “inactive”; to ATIYICGLNPNRVAACIVLE, “inactive”; to RHFDSMTINLYTTSLTFFAN, “inactive”. To IRMQNLRFGSLKLAGFIMCD belongs “inactive”; to RATKVDVRGGVA, -0.911 ± 1.5; to NTNGMQDLSLCCRCYDTELR, “inactive”. SKFCSGSLFMIRCILGSRYL: the amyloid nucleation score result was “inactive”. As for RVCSW, the entry is “inactive”; as for LSNDQSDTMEKCRRSVTLW, “inactive”. DALAVSINCSLFRCCSM: the amyloid nucleation score worked out at 3.3 ± 0.055. To NCNIWIEVQFTASDVIISWV belongs 1.69 ± 0.066; to KMKIT, “inactive”; to DSCKIYGG, “inactive”. AYAQSYND: the amyloid nucleation score result was “inactive”. Take ILKGL: the amyloid nucleation score entry is “inactive”. As to KMRSSVYFLDYNWNKTLPCL, the amyloid nucleation score is -0.541 ± 1.1. Turning to AQFVWMKLHICRTDLGESH, the amyloid nucleation score entry was “inactive”. ASCSVVEKISFTDPGIQWIR registered an amyloid nucleation score of -0.032 ± 1.1. As for SNILAA, the amyloid nucleation score entry is “inactive”. With ILLIVL, the amyloid nucleation score was 1.68 ± 0.061.

Consider AYLGLLNSAKFFKYLRSYAW, for which the amyloid nucleation score entry is “inactive”. On to WPAVEKSLRRECFIVLRPFG, for which the amyloid nucleation score result is “inactive”.

The substance DVEFGLSKLCYHRVCYVTEM registered an amyloid nucleation score of -0.113 ± 0.66.

Turning to TNYRYSFGISYS, the amyloid nucleation score result was “inactive”. PLEGTALRHMVSMYYLSCWT: the amyloid nucleation score result is “inactive”. As for VARISYLEIHNGETNFTYWF, the figure is 2.47 ± 0.062; as for YYQLKSHVVRDGHVWTICGS, “inactive”; as for PRSANSARCVTISSNMEHSR, “inactive”.

On to LFGSF, for which the amyloid nucleation score entry was “inactive”.

Regarding NPRTRFILNLPVFPSYHEHP, the amyloid nucleation score entry was “inactive”. Take ASRSDCTRYIMTTMIWWHFP: the amyloid nucleation score entry is “inactive”. Regarding KWKFCSGYAELMLP, the amyloid nucleation score entry was “inactive”.

For the substance YIRVVNAPVCTGNCLQDAYL, the amyloid nucleation score result was “inactive”. To IRMHGWPYRLVREICFNGFF belongs 0.028 ± 0.5; to KRGLTGVSLVLDETVAVPSD, “inactive”; to SWQMWYWLLVKSMPCMLHHF, “inactive”. For LENRSFNMMMFV, the amyloid nucleation score entry was “inactive”. LMYTRGFLWGAWINACMSRG yielded an amyloid nucleation score of 1.2 ± 0.15. To ALSPHSNCIYNCLSCCCDTD belongs 0.655 ± 0.15; to PFRVLLQGIKDAPSKFIDSG, “inactive”. MSPLGTCYRILKLDYCKYAV: the amyloid nucleation score is -0.328 ± 0.55. As for ILSFEVWFGLWSTCGLYPHK, the amyloid nucleation score entry was “inactive”. On to YWMMLRT, for which the amyloid nucleation score entry was “inactive”.

Take DSTSLKIGRNAMSHHKSNPC: the amyloid nucleation score is 1.09 ± 0.11.

As for IYSYTVFPSFGGMLCMVLVG, the amyloid nucleation score result is “inactive”. In the case of YFGLALKSFGTLM, the amyloid nucleation score came to 0.876 ± 0.19.

Turning to IQDHFELFTNVGSYFQIQPL, the amyloid nucleation score entry was “inactive”. As for TDRTQ, the amyloid nucleation score result was “inactive”.

In turn, SLAAIYSFVYFSSDVIRSHY displayed an amyloid nucleation score of 1.34 ± 0.15.

NLLKSTYSVIASCASLLDLV: the amyloid nucleation score entry was “inactive”.

Substance NEVVQSLTRSIFRRYSKSAM had an amyloid nucleation score of 0.129 ± 0.98.

Take HRSINCWAYVRL: the amyloid nucleation score result was “inactive”. RIFLIICKMYYFRNNRLFRM registered an amyloid nucleation score of -0.508 ± 0.8.

Turning to VVLYRIGVLSN, the amyloid nucleation score result was “inactive”. For the substance AVTYENRSNLIVKVLVI, the amyloid nucleation score was -0.363 ± 0.27. With LTKGLSAMLQFRWRAVFKNG, the amyloid nucleation score result was “inactive”.

For LYRAIIIRRWFGNMGDFHKP, the amyloid nucleation score entry was “inactive”. Take SDMTYHQWGTVYTLD: the amyloid nucleation score entry is “inactive”. For the substance FTINV, the amyloid nucleation score entry was “inactive”. As for LYLFMAYGVLGVLRQ, the figure is 0.397 ± 0.42; as for DKSSSFLVRGLLLHTSRATQ, “inactive”.

With YFSLWVLSYFLEAPLSLRNN, the amyloid nucleation score entry was “inactive”. In turn, CFTNNSIHVYSLWIKTRHFF had an amyloid nucleation score of 0.239 ± 0.58. To VFFETNVMGQEWYGGHVKR belongs “inactive”; to YGRDQSRYYLYSSMGEV, 0.148 ± 0.72; to WHSMSCFSPKLGWDQFPVLR, “inactive”. For the substance PLITVDY, the amyloid nucleation score was -0.153 ± 0.7. Regarding WYVYTNIRNVSYDIFDNKKF, the amyloid nucleation score amounted to 1.49 ± 0.11. As for RFWFMDFFSH, the figure is 1.89 ± 0.076; as for RADFLPVKNVMRFRCEFWKR, “inactive”.

Regarding RLFYCVSAVRIHVCGNSKLF, the amyloid nucleation score entry was “inactive”.

In the case of YLYGGQRVGSF, the amyloid nucleation score entry is “inactive”.

On to IMHGSNMVRRGLVQY, for which the amyloid nucleation score result is “inactive”. As for NMRKLVCDMEIWMIFCAKSN, the figure is 0.505 ± 0.28; as for CSPRTWCFGYNLFDM, 2.5 ± 0.074. WDIWCRS: the amyloid nucleation score result is “inactive”.

Consider QYVVSGMTYFWRYMRLVNVR, for which the amyloid nucleation score result is “inactive”. As for CPNVYIAIPIFS, the figure is -0.423 ± 0.63; as for IRSYERVSRLTGVVGSTSVD, “inactive”; as for LHCFIMLIKCDRVMIVTVQG, “inactive”.

YIMDLKITANVLTYVACARR had an amyloid nucleation score of 1.4 ± 0.097. As for LCSAIGWSSACIFVWSYYTR, the entry is “inactive”; as for CRHINFMSIIFSFGDSSYRF, 2.2 ± 0.08; as for ACLIRPRFYPVNHNSVVASL, “inactive”.

On to AHVKLNDVFSWI, for which the amyloid nucleation score result was “inactive”.

Consider YREREAAR, for which the amyloid nucleation score entry was “inactive”. Take DNSGVSVQLRKVSESGSA: the amyloid nucleation score entry was “inactive”. FICVAIGTFCFIEMMHLIGR gave an amyloid nucleation score of 1.23 ± 0.086. To YPMLLALYTGSVFNFNRCRL belongs 2.07 ± 0.089; to FCYSDFIPLWIR, “inactive”. To CFSAASTVKNMIEGCCRGMY belongs “inactive”; to KYWLMVWRFNYCMTYNGGLE, “inactive”; to ASYEDFWDNLA, -0.239 ± 1.4.

Regarding NNGFGSWGV, the amyloid nucleation score result is “inactive”.

Take LWVYAPFDSK: the amyloid nucleation score result was “inactive”.

In the case of DRMKATVQLDFG, the amyloid nucleation score entry was “inactive”. With VYCFV, the amyloid nucleation score entry is “inactive”.

In the case of CNSGWGTYVV, the amyloid nucleation score entry is “inactive”. For LRIMSIYIEEALSIGHDNWF, the amyloid nucleation score is 0.205 ± 0.46. Consider RSVVLNRADMECKQELVNLN, for which the amyloid nucleation score result is “inactive”. NTPGYSELIVFGST: the amyloid nucleation score result is “inactive”. On to MITDSGIYFAFCWDKSTVSS, for which the amyloid nucleation score entry was “inactive”. Take RNTMSFNDSFTNALLLKSVG: the amyloid nucleation score entry was “inactive”. Consider YNQCWLTIDINFRYLLA, for which the amyloid nucleation score was found to be 1.4 ± 0.15. As for RGKCSNIETRIVRCWGGQVV, the amyloid nucleation score result is “inactive”. On to LMDDTVQMYR, for which the amyloid nucleation score result is “inactive”. With CASTDKNPFLPVNAAITYGL, the amyloid nucleation score entry was “inactive”. To DDSMHDGLRVTRRVCKRGSF belongs “inactive”. As for TLSVLFSVSAAAFGVHRIQD, the figure is 1.09 ± 0.21. To DLSVWRALYNGLLQRASH belongs “inactive”; to VTRGVLLCEPVTGMHQVACG, “inactive”. Take PAMDII: the amyloid nucleation score entry was “inactive”. On to DMATVIVSKLFTVVVWYLFW, for which the amyloid nucleation score result was “inactive”.

As to WILLGRSSQWSWASGGNSGQ, the amyloid nucleation score was determined as 1.5 ± 0.092. The substance TPYVTGTTEAVKMQHRCNVD gave an amyloid nucleation score of -0.188 ± 0.87. As for CRVWEDDFLSNRSGLVRHLT, the entry is “inactive”.
